Data from US20220242941A1 (NOVOBIND LIVESTOCK THERAPEUTICS, published 2022).

T1: Eimeria maxima MIC2 (Eimeria maxima)
T1 construct: Recombinant antigen coated on ELISA wells; also called EmMIC2
T1 chain: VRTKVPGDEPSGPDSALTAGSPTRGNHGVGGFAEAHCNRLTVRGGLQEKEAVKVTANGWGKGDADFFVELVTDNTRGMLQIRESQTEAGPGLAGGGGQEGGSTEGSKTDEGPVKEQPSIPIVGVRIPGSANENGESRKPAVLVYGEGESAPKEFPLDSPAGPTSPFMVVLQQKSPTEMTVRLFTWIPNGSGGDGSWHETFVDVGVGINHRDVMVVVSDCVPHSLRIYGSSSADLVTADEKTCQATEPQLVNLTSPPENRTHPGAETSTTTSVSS

T2: Eimeria tenella MIC2 (Eimeria tenella)
T2 construct: Recombinant antigen coated on ELISA wells; also called EtMIC2
T2 chain: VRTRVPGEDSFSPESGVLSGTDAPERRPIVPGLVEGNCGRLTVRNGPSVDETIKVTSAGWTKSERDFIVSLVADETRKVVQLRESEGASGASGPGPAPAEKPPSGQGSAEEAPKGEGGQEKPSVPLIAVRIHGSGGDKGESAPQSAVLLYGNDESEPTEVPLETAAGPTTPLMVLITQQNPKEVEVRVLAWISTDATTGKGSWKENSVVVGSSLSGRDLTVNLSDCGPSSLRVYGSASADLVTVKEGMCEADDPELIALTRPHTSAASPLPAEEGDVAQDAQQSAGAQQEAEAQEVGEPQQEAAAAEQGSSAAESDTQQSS


Molecular target: T1, Eimeria maxima MIC2
Assay: phage ELISA, antigen-coated wells;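 note: antigen dissolved in PBS and coated onto wells, with negative-control wells holding PBS alone as the reference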
Source text: (§1) Black bars show binding to wells coated with the antigen specified in Tables 1 and 2 dissolved in phosphate-buffered saline (PBS). Grey bars are negative controls that show binding to wells coated with PBS only.

Binder	binding relative to PBS-coated wells [times]
NBX0708 (VHH) VHH: QVQLQESGGGLVQAGDSLSLSCVDSKRTADRYVMHWFRQVPGKDREFVAAISGNGLVRNYADSVKGRFTISRDNAKNMVYLQMKSLKPEDTAVYYCAADFVLDSRWRYVPYWGQGTQVTVSS	≥ 4
NBX0750 (VHH) VHH: QVQLQESGGGLVQPGDSLRLSCAPSGRTFSGYVTGWFRQAPGMEREFVAAITWSGDSTYYADSVKGRFQISRDSAKNTVYLQMNSLKPEDAGVYYCAVKSQTYSTDYVQPRRYAYWGQGTQVTVSS	≥ 4
NBX0710 (VHH) VHH: QVQLQESGGGLVQAGGSLRLSCAASGSIFSINAMGWYRQAPGKQRELVAGITSGGSTNYADSVKGRFTISRDNAKNTVYLQMNSLKPEDTAVYYCAADYVGLGDDAFYVPYWGQGTQVTVSA	≥ 4
NBX0712 (VHH) VHH: QVQLQESGGGLVQTGGSLRLSCAASGRTFTRNAMGWFRQAPGKAREFVAVISWSGNRAYSDSVKGRFTISRDNGKNLVSLQMNSLKPEDTAVYYCAAAREAITSTYYTPHVLTDYDAWGQGAQVTVSS	≥ 4
NBX0732 (VHH) VHH: QVQLQESGGGLVQTGGSLRLSCAASGRTFRRNAMGWFRQAPGKAREFVATITWSGNRAYSDSVKGRFTISRDNEKNLVSLQMNSLKPEDTAVYYCAAARERITSTYYTPHVLTEYDAWGQGAQVTVSS	≥ 4
NBX0715 (VHH) VHH: QVQLQQSGGGLVQAGGSLRLSCAASGRTFSRNAMGWFRQAPGKAREFVATISWSGNRAYSDSVKGRFTISRDNEKNLVSLHMNSLKPEDTAVYYCAAARERITSTYYTPHVLTDYDAWGQGAQVTVSS	≥ 4
NBX0740 (VHH) VHH: QVQLQESGGGLVQAGGSLRLSCAASGRTFVNYNMGWFRQAPGKEREFVATINWSGGSTYYAGSVKGRFTISRDSAKNTVYLQMNKLKPEDTAVYYCAAEVGYGYQGPPLTTPSMYDYWGQGTQVTVST	≥ 4
NBX0751 (VHH) VHH: QVQLQESGGGLVQPGGSLRLSCAVSGTIFSITPMGWYRQAPGKQRELVASISGGGSTNYTDPVKGRFTISRDKARNTVYLQMNNLKPEDTAVYYCNAASLAIVRGINNYWGQGTQVTVSS	≥ 4
NBX0711 (VHH) VHH: QVQLQQSGGGLVQPGGSLRLSCAASRSIRSADAMAWYRQAPGKQRVWVATITSGGSTYYTDSVKGRFTISRDNAKSTVYLQMSSLKPEDTAVYYCNAVGDRTSYWGQGTQVTVAS	≥ 4
NBX0733 (VHH) VHH: QVQLQQSGGGLVQPGGSLRLSCAASGSIFSVDAMAWYRQAPGKQREWVATFTKGGSTYYAGSVKGRFTISRDNAKNTVYLQMSSLKPEDTAVYYCNAVGDRTGAWGQGTQVTVAS	≥ 4

Molecular target: T2, Eimeria tenella MIC2
Assay: phage ELISA, antigen-coated wells;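 note: antigen dissolved in PBS and coated onto wells, with negative-control wells holding PBS alone as the reference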
Source text: as §1

Binder	binding relative to PBS-coated wells [times]
NBX0749 (VHH) VHH: QVQLQESGGGLVQAGGSLRLSCATSGSIFSRDTMAWYRQVPGEQRELVAYITNFGGTNHADSVKGRFTISRDNAKNTVYLQMNSLKPEDTAVYYCAAGLLSLRTHTWEYWGQGTQVTVSS	≥ 4
NBX0748 (VHH) VHH: QVQLQESGGGLVQAGGSLRLSCVASGSIFSRDTMAWYRQVPGEQRELVAYITNFGGTNHADSVKGRFTISRDNAKNTVYLQMNSLKPEDTAVYYCAAGLLSLRSHTWELWGQGTQVTVSS	≥ 4
NBX0728 (VHH) VHH: QVQLQESGGGLVQAGGSLRLSCAASASIFSRDTMAWYRQVPGEQRELVAYVTNFGGTNHADSVKGRFTISRDNAKNTVYLQMNSLKPEDTAVYYCAADLISLRTHTWEYWGQGTQVTVSS	≥ 4
NBX0726 (VHH) VHH: QVQLQQSGGGLVQAGGSVRLSCTANGLTFGNYAMAWFRRTPGKERAFVGGMSASGAGTYYLDSVKGRFTISRDTAKNTVYLEMNSLKAEDTAVYYCAANSIYPGRRWASYDYWGQGTQVTVSS	≥ 4
NBX0727 (VHH) VHH: QVQLQQSGGGLVQAGGSVRLSCAASGLTLGNYALAWFRRTPGKEREFVAGMSGSGAGTYYLDSVNGRFTISRDNAKNTLYLQMNSLKAEDTAVYYCAANSIYPGRRWASYDYWGQGTQVTVSS	≥ 4

Molecular target: T3, GST fusion of the EmAMA1-binding peptide of EmRON2 (Eimeria maxima, UniProt P08515 1-218 = GST)
T3 construct: Expressed in E. coli, purified as the other antigens but without TEV cleavage, so a His tag and TEV site probably remain; also called GST-RON2 peptide
T3 sequence (P08515 1-218, tags or fused parts left off): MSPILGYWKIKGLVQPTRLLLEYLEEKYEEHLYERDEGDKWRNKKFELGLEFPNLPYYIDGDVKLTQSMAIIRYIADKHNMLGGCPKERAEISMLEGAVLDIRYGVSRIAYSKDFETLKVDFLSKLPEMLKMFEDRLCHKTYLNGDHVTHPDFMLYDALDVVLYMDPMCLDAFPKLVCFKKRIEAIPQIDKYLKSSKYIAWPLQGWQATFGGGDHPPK
Assay: phage ELISA, wells coated with GST-RON2 peptide

Binder	binding relative to GST-coated wells [times]	binding relative to PBS-coated wells [times]
NBX17020 (VHH) VHH: QVQLQQSGGGLVQAGGSLRLSCAGSGRPFGSYVMGWYRQAPGEQREMVARMTSAGSGGVADYGESVKGRFAISRDYAKNMVFLQMNSLKPEDTAVYYCWSALGYWGQGTQVTVSS	≥ 3	≥ 4
NBX17024 (VHH) VHH: QVQLQESGPGLVKPSQTLSLTCTVSGGSITTSYSTWSWIRQPPGKGLEWMGVIADDGSAEYSPSLKSRTSISLDTSKNQFSLQLSSVTPEDTAVYYCARRGGAWGSNWWAYHMDDWGKGTLVTVSS	≥ 3	≥ 4
NBX17019 (VHH) VHH: QVQLQESGGGLVQAGGSLRLSCTGPGSTFSSYAVGWYRQAPGGNREWVASISSSGEITRYADSVTGRFTISRDNAKNTVDLQMNSLRPEDTAVYYCAIGTMARGKGTLVTVSS	≥ 3	≥ 4
